Experiments:
Assay in all cases: BLI
[1] = target: T1, SARS-CoV-2 RBD wt (GenScript Z03479) (SARS-CoV-2, UniProt P0DTC2 319-541)
[2] = target: T1, SARS-CoV-2 RBD wt (GenScript Z03479); remark: listed apart in the source
[3] = target: T2, SARS-CoV-2 Spike RBD (residues 334–527), C-terminal Avi-His6 tag, biotinylated (SARS-CoV-2, UniProt P0DTC2 334-527, biotin on the Avi-tag)
[4] = target: T2, SARS-CoV-2 Spike RBD (residues …); remark: listed apart in the source

B1: VHH antibody Re5D06, labeled with two PEG11-biotins (VHH)
VHH: QVQLVESGGGLVQPGGSLRLSCAASGITLDYYAIGWFRQAPGKEREGVSRIRSSDGSTNYADSVKGRFTMSRDNAKNTVYLQMNSLKPEDTAVYYCAYGPLTKYGSSWYWPYEYDYWGQGTQVTVSS
- Kd [1]: < 0.01 nM
- koff [2]: 1.6e-06 s⁻¹

B2: VHH antibody Re9F06 (VHH)
VHH: QVQLVESGGGLVQAGGSLRLSCAASGRTFSNDALGWFRQAPRKEREFVAAINWNSGTYYADSVKGRFTISRDNAKNTVYLQMNSLKPEDTAVYSCAAASDYGLPREDFLYDYWGQGTQVTVSS
- Kd [3]: 270 nM
- koff [4]: 0.00045 s⁻¹

Source: article PMC8420576 (2021)
